What was measured:
Assay in all cases: SEC
[1] = molecular target: recombinant palivizumab dimeric IgA2 (UniProt P01591)
[2] = molecular target: recombinant motavizumab dimeric IgA1 (UniProt P01591)
[3] = molecular target: recombinant motavizumab dimeric IgA2 (UniProt P01591)
[4] = molecular target: recombinant palivizumab dimeric IgA1 (UniProt P01591)

Measured: sIgA formation

secretory component (domain or fragment)
100%: all assays above
